# In paper PMC4515144 (Chemistry & biology, 2015):
# *: point of attachment. P‑1 benzyl acid (p-CN) = benzyl acid lacking the N-terminal amino group (p-cyano substituted), replacing Tyr at P-1, N#Cc1ccc(CCC(=O)*)cc1; P‑1 benzyl acid (p-SO2NH2) = p-sulfonamide (SO2NH2) benzyl acid lacking the N-terminal amino group, replacing Tyr P-1; P‑1 benzyl acid (m-CH3) = m-methyl benzyl acid lacking the N-terminal amino group, replacing Tyr P-1; P‑1 benzyl acid (m-Cl) = m-chloro benzyl acid lacking the N-terminal amino group, replacing Tyr P-1; P‑1 benzyl acid (m-F) = m-fluoro benzyl acid lacking the N-terminal amino group, replacing Tyr P-1; P‑1 benzyl acid (p-NH2) = benzyl acid at P-1 lacking the N-terminal amino group, replacing Tyr P-1; Propanoyl(3-(4-F-phenyl)) = O=C(CCc1ccc(F)cc1)*
# Experiments:
# [1] = Plasma stability by LC-MS; settings: rat plasma, 37 °C; 123B7 versus YSA, 123B4 versus YSA-9mer
# [2] = mice; ref Singla et al., 2002; Zhang et al., 2013; cited from earlier work
# [3] = cited from earlier work
# [4] = target: EphA2-LBD (residues 27-200) (Homo sapiens, UniProt P29317); assay: 1D 1H-aliph NMR binding assay, rank ordering; settings: 10 μM EphA2-LBD, 100 μM compound; arbitrary scale 1 to 5
# Sequence of EphA2-LBD (residues 27-200) (P29317 27-200): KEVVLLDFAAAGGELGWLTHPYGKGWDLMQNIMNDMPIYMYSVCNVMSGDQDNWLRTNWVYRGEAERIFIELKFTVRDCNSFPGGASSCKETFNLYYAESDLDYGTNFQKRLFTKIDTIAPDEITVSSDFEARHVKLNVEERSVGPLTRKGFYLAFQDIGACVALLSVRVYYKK
# [5] = target: EphA2 ligand binding domain (residues 27-200) (UniProt P29317 27-200); assay: NMR titration
# Sequence of EphA2 ligand binding domain (residues 27-200) (P29317 27-200): as above
Molecule,Rank ordering by NMR [5],also measured
CSCC[C@H](NC(=O)[C@H](CCSC)NC(=O)[C@@H]1CCCN1C(=O)[C@@H](NC(=O)[C@H](CO)NC(=O)[C@H](CC(=O)O)NC(=O)[C@@H]1CCCN1C(=O)[C@H](Cc1ccc(O)cc1)NC(=O)[C@H](C)NC(=O)[C@H](CO)NC(=O)COc1ccc(F)c(Cl)c1)C(C)C)C(=O)N[C@@H](CO)C(N)=O [123B7],–,plasma stability versus corresponding non-optimized peptide [1]: significantly improved peptide stability
"CC(=O)O[C@H]1C(=O)[C@@]2(C)[C@H]([C@H](OC(=O)c3ccccc3)[C@]3(O)C[C@H](OC(=O)[C@H](O)[C@@H](NC(=O)c4ccccc4)c4ccccc4)C(C)=C1C3(C)C)[C@]1(OC(C)=O)CO[C@@H]1C[C@@H]2O [PTX, paclitaxel]",–,single dose MTD [2]: < 30 mg/kg
ySAYPDSVP-Nle-Hsr-S [dYNH],–,half-life in plasma [3]: > 1 h
120H5 ({P‑1 benzyl acid (p-NH2)}-SAYPDSVP-NH2),–,Rank ordering by NMR [4]: 1
{P‑1 benzyl acid (p-CN)}-SAYPDSVP-NH2 [120A5],"3 rank, arbitrary scale 1-5",–
{Propanoyl(3-(4-F-phenyl))}-SAYPDSVP-NH2 [120F11],"2 rank, arbitrary scale 1-5",–
{P‑1 benzyl acid (p-NH2)}-SAYPDSVP-NH2 [120H5],"1 rank, arbitrary scale 1-5",–
{P‑1 benzyl acid (m-Cl)}-SAYPDSVP-NH2 [120G8],"4 rank, arbitrary scale 1-5",–
{P‑1 benzyl acid (m-CH3)}-SAYPDSVP-NH2 [123A12],"4 rank, arbitrary scale 1-5",–
{P‑1 benzyl acid (p-SO2NH2)}-SAYPDSVP-NH2 [120H8],"3 rank, arbitrary scale 1-5",–
{P‑1 benzyl acid (m-F)}-SAYPDSVP-NH2 [120G7],"2 rank, arbitrary scale 1-5",–
